Measured values as given in paper PMC6934326, “A kinase-dependent checkpoint prevents escape of immature ribosomes into the translating pool” (PLoS Biology, 2019).
Values belong to the molecule of their own block, whether it stands above or below them.

What was measured:
[1] = test system: Nob1; test: EMSA; conditions: 40 mM HEPES pH 7.6, 50 mM KCl, 10 mM MgCl2, 10 min at 30 C; trace 32P RNA prefolded at 65 C in 40 mM HEPES pH 7.6, 100 mM KCl, 2 mM MgCl2; 6% acrylamide/THEM …
[2] = target: T1, maltose-binding protein (MBP)-Rio1 (Saccharomyces cerevisiae (strain ATCC …, UniProt Q12196)); test: MBP pull-down (amylose resin), Coomassie SDS-PAGE; tested with AMPPNP; Rio1 binds only when Nob1 and Pno1 are both present (with AMPPNP, little to none with ADP)
T1 chain: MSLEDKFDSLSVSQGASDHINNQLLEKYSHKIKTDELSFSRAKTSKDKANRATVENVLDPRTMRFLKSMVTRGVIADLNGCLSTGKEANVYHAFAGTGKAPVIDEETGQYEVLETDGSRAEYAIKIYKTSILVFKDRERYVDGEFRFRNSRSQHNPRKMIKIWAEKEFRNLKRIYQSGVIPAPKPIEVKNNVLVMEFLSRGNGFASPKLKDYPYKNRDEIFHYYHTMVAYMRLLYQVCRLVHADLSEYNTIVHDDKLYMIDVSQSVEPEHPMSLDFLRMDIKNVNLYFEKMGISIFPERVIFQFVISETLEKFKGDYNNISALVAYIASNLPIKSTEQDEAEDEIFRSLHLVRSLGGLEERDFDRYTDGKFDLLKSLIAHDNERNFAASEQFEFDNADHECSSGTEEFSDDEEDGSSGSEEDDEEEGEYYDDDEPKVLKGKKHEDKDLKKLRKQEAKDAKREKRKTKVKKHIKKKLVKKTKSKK

[3] = target: T2, MBP-Pno1 (Saccharomyces cerevisiae (strain ATCC …, UniProt Q99216)); test: MBP pull-down (amylose resin), Coomassie SDS-PAGE; tested with AMPPNP; Rio1 binding requires Nob1 as well as Pno1
T2 chain: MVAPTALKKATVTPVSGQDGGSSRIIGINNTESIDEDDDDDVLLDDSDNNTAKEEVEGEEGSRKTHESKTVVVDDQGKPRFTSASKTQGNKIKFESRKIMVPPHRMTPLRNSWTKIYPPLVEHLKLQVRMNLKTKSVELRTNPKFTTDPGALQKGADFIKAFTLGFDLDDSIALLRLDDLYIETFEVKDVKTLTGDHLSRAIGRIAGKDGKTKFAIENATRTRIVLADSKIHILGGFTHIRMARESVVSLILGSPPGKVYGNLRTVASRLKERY

[4] = target: T3, Nob1–Pno1 complex (S. cerevisiae, UniProt Q08444 1-459; Q99216 1-274); test: pull-down; 7 μM MBP-tagged protein held on amylose resin, 20 μM untagged protein; 50 mM HEPES pH 7.5, 200 mM NaCl, 5 mM MgCl2, 2 mM AMPPNP; 4 °C; eluted with 50 mM maltose; Coomassie-stained SDS-PAGE; conditions: both partners purified
T3 construct: Nob1, S. cerevisiae, untagged, as m2; Pno1, S. cerevisiae, untagged, as m3; The two proteins were added together with MBP-Rio1 and preincubated; the complex was not isolated beforehand; also called Nob1 and Pno1
T3 sequence (looked up) 1: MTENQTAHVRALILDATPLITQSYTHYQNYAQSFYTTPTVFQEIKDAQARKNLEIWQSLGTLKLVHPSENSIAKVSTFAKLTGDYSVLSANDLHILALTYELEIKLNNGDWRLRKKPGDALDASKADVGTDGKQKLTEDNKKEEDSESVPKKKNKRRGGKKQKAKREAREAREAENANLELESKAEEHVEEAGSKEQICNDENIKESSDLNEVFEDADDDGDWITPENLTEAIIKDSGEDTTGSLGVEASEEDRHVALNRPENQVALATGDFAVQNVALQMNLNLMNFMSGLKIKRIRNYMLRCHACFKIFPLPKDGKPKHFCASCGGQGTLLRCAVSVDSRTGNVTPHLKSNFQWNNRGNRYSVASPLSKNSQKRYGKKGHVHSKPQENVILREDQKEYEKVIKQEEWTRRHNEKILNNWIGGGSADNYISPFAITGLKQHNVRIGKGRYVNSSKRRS
T3 sequence (looked up) 2: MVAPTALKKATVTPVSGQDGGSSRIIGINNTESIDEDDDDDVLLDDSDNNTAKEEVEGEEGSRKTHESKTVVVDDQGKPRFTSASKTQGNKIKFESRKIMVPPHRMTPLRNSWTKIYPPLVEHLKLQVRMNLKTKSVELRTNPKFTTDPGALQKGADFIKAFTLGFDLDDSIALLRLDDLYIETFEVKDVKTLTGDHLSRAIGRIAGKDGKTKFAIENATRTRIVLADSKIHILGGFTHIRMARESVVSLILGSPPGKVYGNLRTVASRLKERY

[5] = target: T4, MBP-Nob1 (Saccharomyces cerevisiae (strain ATCC …, UniProt Q08444)); test: MBP pull-down (amylose resin), Coomassie SDS-PAGE; tested with AMPPNP; Rio1 binding requires Pno1 as well as Nob1
T4 chain: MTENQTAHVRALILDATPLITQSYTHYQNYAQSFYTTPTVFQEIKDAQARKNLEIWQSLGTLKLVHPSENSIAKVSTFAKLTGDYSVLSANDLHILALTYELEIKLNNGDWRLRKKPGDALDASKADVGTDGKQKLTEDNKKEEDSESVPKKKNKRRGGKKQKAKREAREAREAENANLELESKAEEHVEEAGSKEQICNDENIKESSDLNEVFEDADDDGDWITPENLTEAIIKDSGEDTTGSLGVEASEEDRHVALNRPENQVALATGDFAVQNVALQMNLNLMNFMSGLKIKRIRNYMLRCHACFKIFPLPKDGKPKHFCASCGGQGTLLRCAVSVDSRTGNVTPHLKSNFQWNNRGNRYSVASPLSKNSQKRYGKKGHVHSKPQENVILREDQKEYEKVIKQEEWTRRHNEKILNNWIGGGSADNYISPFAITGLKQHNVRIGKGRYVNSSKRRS

Molecule: D-A2 (3'-ITS1 product)
- Kd [1]: 960 nM

- binding result [2]: no binding
B1: Nob1 (protein)
chain: MTENQTAHVRALILDATPLITQSYTHYQNYAQSFYTTPTVFQEIKDAQARKNLEIWQSLGTLKLVHPSENSIAKVSTFAKLTGDYSVLSANDLHILALTYELEIKLNNGDWRLRKKPGDALDASKADVGTDGKQKLTEDNKKEEDSESVPKKKNKRRGGKKQKAKREAREAREAENANLELESKAEEHVEEAGSKEQICNDENIKESSDLNEVFEDADDDGDWITPENLTEAIIKDSGEDTTGSLGVEASEEDRHVALNRPENQVALATGDFAVQNVALQMNLNLMNFMSGLKIKRIRNYMLRCHACFKIFPLPKDGKPKHFCASCGGQGTLLRCAVSVDSRTGNVTPHLKSNFQWNNRGNRYSVASPLSKNSQKRYGKKGHVHSKPQENVILREDQKEYEKVIKQEEWTRRHNEKILNNWIGGGSADNYISPFAITGLKQHNVRIGKGRYVNSSKRRS

- binding result [2]: no binding
B2: Pno1 (protein)
chain: MVAPTALKKATVTPVSGQDGGSSRIIGINNTESIDEDDDDDVLLDDSDNNTAKEEVEGEEGSRKTHESKTVVVDDQGKPRFTSASKTQGNKIKFESRKIMVPPHRMTPLRNSWTKIYPPLVEHLKLQVRMNLKTKSVELRTNPKFTTDPGALQKGADFIKAFTLGFDLDDSIALLRLDDLYIETFEVKDVKTLTGDHLSRAIGRIAGKDGKTKFAIENATRTRIVLADSKIHILGGFTHIRMARESVVSLILGSPPGKVYGNLRTVASRLKERY

- binding result [3]: no binding
- binding result [4]: binds
- binding result [5]: no binding
B3: maltose-binding protein (MBP)-Rio1 (enzyme, S. cerevisiae, UniProt Q12196 1-484, looked up)
chain: MSLEDKFDSLSVSQGASDHINNQLLEKYSHKIKTDELSFSRAKTSKDKANRATVENVLDPRTMRFLKSMVTRGVIADLNGCLSTGKEANVYHAFAGTGKAPVIDEETGQYEVLETDGSRAEYAIKIYKTSILVFKDRERYVDGEFRFRNSRSQHNPRKMIKIWAEKEFRNLKRIYQSGVIPAPKPIEVKNNVLVMEFLSRGNGFASPKLKDYPYKNRDEIFHYYHTMVAYMRLLYQVCRLVHADLSEYNTIVHDDKLYMIDVSQSVEPEHPMSLDFLRMDIKNVNLYFEKMGISIFPERVIFQFVISETLEKFKGDYNNISALVAYIASNLPIKSTEQDEAEDEIFRSLHLVRSLGGLEERDFDRYTDGKFDLLKSLIAHDNERNFAASEQFEFDNADHECSSGTEEFSDDEEDGSSGSEEDDEEEGEYYDDDEPKVLKGKKHEDKDLKKLRKQEAKDAKREKRKTKVKKHIKKKLVKKTKSKK
notes: Rio1, aspartate kinase, S. cerevisiae; cloned into pSV272 as a TEV-cleavable His6-MBP fusion; The tag was not cut off for this form; also called His-MBP-tagged Rio1; His6-MBP fusion protein; source: E. coli Rosetta DE3, purified (Ni-NTA, MonoQ, Superdex200)
